What was measured:
[1] = target: low-density lipoprotein receptor-related protein 1 (LRP1), endogenous in WI38 lung fibroblasts (human (endogenous in WI38)) (UniProt Q07954)
[2] = target: low-density lipoprotein receptor-related protein 1 (LRP1), endogenous in WI38 lung fibroblasts (human (endogenous in WI38)) (UniProt Q07954); remark: listed apart in the source

Sequence of UniProt Q07954 (Q07954 20-4544): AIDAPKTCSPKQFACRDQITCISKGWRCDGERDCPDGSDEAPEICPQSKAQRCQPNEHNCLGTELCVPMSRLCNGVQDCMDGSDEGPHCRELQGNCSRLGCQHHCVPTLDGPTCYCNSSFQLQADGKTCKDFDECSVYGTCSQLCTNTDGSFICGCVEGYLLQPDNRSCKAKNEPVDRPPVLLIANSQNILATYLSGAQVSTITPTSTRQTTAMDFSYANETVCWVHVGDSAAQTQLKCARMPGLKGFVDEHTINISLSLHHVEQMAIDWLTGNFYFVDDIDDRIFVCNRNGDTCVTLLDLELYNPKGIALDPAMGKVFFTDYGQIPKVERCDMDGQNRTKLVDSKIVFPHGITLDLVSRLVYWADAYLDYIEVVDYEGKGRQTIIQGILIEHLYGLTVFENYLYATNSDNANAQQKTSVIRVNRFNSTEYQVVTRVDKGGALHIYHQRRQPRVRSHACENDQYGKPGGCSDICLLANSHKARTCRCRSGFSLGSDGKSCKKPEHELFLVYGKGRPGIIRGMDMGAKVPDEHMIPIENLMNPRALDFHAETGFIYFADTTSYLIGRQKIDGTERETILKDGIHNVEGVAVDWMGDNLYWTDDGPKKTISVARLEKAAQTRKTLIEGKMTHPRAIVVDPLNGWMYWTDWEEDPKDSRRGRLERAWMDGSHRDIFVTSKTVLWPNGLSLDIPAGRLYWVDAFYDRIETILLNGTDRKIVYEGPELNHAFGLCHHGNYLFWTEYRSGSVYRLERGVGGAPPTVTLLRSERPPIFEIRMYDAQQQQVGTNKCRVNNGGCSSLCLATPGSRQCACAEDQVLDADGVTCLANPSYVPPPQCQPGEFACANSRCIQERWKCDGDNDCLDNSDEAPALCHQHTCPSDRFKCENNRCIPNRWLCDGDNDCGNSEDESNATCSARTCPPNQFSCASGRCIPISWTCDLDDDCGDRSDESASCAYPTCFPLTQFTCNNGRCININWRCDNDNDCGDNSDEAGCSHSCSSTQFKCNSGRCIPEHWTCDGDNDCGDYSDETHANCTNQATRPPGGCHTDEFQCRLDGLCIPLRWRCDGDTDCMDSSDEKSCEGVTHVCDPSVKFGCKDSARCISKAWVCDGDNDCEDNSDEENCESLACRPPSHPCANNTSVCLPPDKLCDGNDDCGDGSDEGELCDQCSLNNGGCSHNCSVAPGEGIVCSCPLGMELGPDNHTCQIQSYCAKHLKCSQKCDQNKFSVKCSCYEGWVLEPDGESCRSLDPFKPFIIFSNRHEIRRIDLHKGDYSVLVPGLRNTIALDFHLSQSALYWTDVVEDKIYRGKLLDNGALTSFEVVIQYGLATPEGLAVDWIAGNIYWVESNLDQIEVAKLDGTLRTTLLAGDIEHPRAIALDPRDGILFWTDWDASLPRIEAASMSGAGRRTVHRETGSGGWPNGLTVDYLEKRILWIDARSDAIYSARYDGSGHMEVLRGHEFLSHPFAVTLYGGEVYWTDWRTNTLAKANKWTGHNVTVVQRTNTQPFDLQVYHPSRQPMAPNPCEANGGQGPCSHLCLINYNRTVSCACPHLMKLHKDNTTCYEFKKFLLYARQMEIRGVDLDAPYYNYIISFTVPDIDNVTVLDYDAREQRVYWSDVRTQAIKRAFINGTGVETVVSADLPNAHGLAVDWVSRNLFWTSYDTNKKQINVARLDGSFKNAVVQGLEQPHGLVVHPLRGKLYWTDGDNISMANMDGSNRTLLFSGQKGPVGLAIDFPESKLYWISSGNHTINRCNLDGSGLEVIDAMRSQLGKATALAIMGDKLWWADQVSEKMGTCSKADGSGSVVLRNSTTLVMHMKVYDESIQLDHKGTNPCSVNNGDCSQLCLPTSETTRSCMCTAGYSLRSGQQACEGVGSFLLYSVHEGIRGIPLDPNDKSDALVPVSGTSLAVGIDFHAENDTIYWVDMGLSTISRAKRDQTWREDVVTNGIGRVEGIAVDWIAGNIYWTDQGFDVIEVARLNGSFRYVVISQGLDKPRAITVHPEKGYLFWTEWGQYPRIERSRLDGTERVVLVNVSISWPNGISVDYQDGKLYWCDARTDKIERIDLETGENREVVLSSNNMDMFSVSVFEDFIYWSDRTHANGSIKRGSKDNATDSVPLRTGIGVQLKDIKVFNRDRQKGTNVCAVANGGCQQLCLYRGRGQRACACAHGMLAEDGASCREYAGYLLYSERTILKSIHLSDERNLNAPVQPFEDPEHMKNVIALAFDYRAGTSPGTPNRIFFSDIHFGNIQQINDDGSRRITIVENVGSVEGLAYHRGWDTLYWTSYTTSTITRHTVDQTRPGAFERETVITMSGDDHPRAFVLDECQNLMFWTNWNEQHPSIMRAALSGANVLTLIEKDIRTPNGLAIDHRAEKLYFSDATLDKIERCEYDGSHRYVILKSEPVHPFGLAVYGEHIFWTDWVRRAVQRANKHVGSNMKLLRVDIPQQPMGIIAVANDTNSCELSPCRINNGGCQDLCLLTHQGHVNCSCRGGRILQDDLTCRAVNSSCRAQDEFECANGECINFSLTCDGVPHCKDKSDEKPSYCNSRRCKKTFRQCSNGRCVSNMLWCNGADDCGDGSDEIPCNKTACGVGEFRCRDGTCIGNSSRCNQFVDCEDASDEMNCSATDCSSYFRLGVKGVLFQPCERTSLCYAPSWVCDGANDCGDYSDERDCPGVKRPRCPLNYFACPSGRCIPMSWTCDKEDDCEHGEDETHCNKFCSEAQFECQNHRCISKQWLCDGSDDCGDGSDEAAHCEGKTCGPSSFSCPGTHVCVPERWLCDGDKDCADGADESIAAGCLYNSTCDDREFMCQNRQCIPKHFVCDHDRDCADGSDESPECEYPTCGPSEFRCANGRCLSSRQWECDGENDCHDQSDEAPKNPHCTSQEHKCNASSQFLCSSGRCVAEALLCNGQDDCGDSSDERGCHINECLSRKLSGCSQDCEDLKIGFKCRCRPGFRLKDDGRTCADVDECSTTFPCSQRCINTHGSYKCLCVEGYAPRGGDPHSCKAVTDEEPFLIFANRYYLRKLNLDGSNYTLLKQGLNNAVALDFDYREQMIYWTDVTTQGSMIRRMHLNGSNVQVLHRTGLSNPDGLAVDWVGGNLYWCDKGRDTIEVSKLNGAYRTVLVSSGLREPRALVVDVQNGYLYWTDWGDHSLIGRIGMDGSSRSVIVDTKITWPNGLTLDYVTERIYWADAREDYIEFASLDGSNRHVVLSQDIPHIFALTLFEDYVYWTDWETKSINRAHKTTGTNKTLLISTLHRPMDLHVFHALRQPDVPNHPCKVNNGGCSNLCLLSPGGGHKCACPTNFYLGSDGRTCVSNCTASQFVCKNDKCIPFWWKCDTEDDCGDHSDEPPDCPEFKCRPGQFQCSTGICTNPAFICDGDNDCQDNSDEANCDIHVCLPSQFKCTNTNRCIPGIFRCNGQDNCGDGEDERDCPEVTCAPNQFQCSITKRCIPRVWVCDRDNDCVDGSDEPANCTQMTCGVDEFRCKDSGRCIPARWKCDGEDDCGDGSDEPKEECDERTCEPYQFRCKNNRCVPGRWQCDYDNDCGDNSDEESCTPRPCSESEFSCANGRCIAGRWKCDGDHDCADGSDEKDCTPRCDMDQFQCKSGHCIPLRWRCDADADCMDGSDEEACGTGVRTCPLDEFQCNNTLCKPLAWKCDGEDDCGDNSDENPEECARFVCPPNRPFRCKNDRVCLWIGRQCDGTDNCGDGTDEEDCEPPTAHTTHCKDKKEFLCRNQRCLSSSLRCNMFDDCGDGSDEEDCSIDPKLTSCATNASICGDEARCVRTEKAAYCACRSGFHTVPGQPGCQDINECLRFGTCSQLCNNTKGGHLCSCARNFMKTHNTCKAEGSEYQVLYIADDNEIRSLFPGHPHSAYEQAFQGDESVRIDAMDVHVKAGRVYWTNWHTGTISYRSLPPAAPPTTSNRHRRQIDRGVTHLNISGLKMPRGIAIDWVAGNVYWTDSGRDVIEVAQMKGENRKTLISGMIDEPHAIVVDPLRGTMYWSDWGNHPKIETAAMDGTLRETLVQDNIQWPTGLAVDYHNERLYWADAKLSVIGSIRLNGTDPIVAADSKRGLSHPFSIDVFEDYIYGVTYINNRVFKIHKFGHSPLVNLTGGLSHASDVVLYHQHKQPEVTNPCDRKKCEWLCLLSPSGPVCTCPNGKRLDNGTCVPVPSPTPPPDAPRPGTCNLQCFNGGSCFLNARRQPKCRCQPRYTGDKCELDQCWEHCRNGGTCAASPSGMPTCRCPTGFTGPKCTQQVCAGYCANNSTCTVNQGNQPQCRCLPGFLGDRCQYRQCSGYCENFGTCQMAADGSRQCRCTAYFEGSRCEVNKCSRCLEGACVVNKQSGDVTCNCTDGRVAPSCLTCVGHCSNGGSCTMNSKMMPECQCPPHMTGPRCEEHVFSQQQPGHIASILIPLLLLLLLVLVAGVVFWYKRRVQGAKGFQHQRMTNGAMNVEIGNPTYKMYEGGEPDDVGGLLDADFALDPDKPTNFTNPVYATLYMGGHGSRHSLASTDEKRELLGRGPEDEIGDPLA

Rac-GTPase activity (G-LISA) in WI38 cells treated with CM from 293T cells expressing PRSS2, compared to CM from empty vector-transfected cells [1]: 2 fold
Rho-GTPase activity (G-LISA) in WI38 cells treated with PRSS2 CM (fold decrease) [1]: 3.2
repression of Tsp-1 protein (western blot) in mock-transfected WI38 fibroblasts treated with CM from 293T cells expressing PRSS2 [2]: 58%
Substance: PRSS2 (serine protease PRSS2, wild type), ectopically expressed in 293T cells (from UniProt P07478 16-247) (enzyme)
